{
  "source": "paper PMC11045668",
  "about": "(Nature chemical biology, 2023)",
  "biological_target": "the molecule itself",
  "assay": "SEC",
  "data": [
    {"protein": "soluble transhydrogenase from E. coli (EcSTH), recombinant, with N-terminal Hisx6-tag and C-terminal FLAG-tag (enzyme, Escherichia coli, UniProt P27306 1-466, looked up) MPHSYDYDAIVIGSGPGGEGAAMGLVKQGARVAVIERYQNVGGGCTHWGTIPSKALRHAVSRIIEFNQNPLYSDHSRLLRSSFADILNHADNVINQQTRMRQGFYERNHCEILQGNARFVDEHTLALDCPDGSVETLTAEKFVIACGSRPYHPTDVDFTHPRIYDSDSILSMHHEPRHVLIYGAGVIGCEYASIFRGMDVKVDLINTRDRLLAFLDQEMSDSLSYHFWNSGVVIRHNEEYEKIEGCDDGVIMHLKSGKKLKADCLLYANGRTGNTDSLALQNIGLETDSRGQLKVNSMYQTAQPHVYAVGDVIGYPSLASAAYDQGRIAAQALVKGEATAHLIEDIPTGIYTIPEISSVGKTEQQLTAMKVPYEVGRAQFKHLARAQIVGMNVGTLKILFHRETKEILGIHCFGERAAEIIHIGQAIMEQKGGGNTIEYFVNTTFNYPTMAEAYRVAALNGLNRLF", "values": [
      {"measurement": "stoichiometry N", "value": 12}
    ]}
  ]
}
